Source: the DeepSol protein solubility set

test: soluble on expression in E. coli; label from the status in PepcDB or PDB records

| Sequence | soluble on expression in E. coli |
| --- | --- |
| VAVTCRVLKLARQPYYRWRAHPVTDAEIVEAYRANALFDAHKDDPEFGYRYLVEEARDAGEPMAERTAWRICSQQGLWSVFGKKRGKNGKPGPPVHDDLVERDFTASEPNALWLSDITEHRTGEGKLYLCAIKDVFSNRIVGYSIDSRMKSRLATAALSSAVARRGDVDGCILHSDRGSQFRSRKFVHALHHHGMVGSMGRVGAAGDNAAMESFFSLLQKNVLDRRRWDTREQLRIAIVIWIERTYHRRRRQLTLGRLTPIEFEAIMTTPASQAA | soluble |
| AQEPVKGPVSTKPGSCPIILIRCAMLNPPNRCLKDTDCPGIKKCCEGSCGMACFVPQ | soluble |
| MVRTAPDPAMVQRSHQKPSLVMTTHSMLIPMVDTLLELPARTLTDGTSTPKHQQLREILEELCRTQLKPGDMLPGERALEEQYGVSRITVRRAIGDLVATGQLRRSRGKGTFVAQAPMITRLQLASFSDEMAARKIEASSKILASSWSSPSAVVHEFFGTEQGTPHTHLVRVRLGGGKPFCINDAWYNSAIAPDLLENDVYKSVYSILEQNYGASITGAEQITTAVAATPETARILGVDVGEPLLKVERHAHAGENPIEWCSSLYRTDRFALRTFITK | not soluble |
| SVDILVIPGHVRGDAAVISKVVGRPVYKGTVSPVYIPDIMKILRSGGKLDTEKPAEEVVKLSDYTSKIVFREAFRVGSLRIPLKPPPLLVVAEIPPTVAEDGIAGLAARMERDGASMVAVGTGFDDDPQVVHEKVRTALSALKDSPVIAETPTLDHAYSALKAGASGVIMPVETAVRLASEKPLPGDAFIIVSGEQPEELAKAVESLRTSGYSKVAVDPSLSPPLLGLLESIERFRRASRLLNVPLVFSAANVAEEVQADSHGVHALLALMALEAGASIYYVVEDSYKSYRSTAEAAEAARYASAARTLFSPRIPLTRLFVVKQPRRPPNPVEPPGERVNVDYIPPSMDRTGYAHIQVDHERGVIMLTFYPAGGEPVTFEGRKPTSLLRALTSRFPVSSEHAGYIGYELAKAEIALALGKTYVQDSPVLVPVWGGLDEE | not soluble |
| MGSDKIHHHHHHAAGSPEEDMEDRVRIDPVAGGYYPSISPSAQTRGATPDGETLKDRPIFLLEDGSTIRLVVYDDAKNLLEEYSKAYLVRNAGTSGSSLLYPCEVDDNGAVISSSSTPLYMKAGTYYFRILSPAKALNSKGFVNIGNGEYLLATDDRYTQTAMTAVTITKIDEGGTLNNVQTLYLPPIINQTARMQFTVRAGEGVHTLEMLAEGIEISGIQQPLDNTTSFDWVNGDVLPVKVGDQSASVRITQATRNADNSLVAHTGVLPTDARSHSISVLLNLKVNGNPTQYQMLLTGLYLTAGHSYNYTATVKISNGVTVLTWQNRSWTENVVMDK | not soluble |
| SLNKIKAFYNLPMAYYRLSNFLKHYIDDNTIIICIGTDRCIGDCLGPMVGTMLKEKFFPLNVYGTISEPIHALNIDKKLYKIKKDHTNSTIIGIDACLGDTENIGEIQVRDYAIHPGKGVGKSLPDVGEVSIVGIVDSCESSELFTNRNIRLNLIFEMSKVIVQTIIHSYYLHKTFSDSIFPDSASTLK | soluble |
| MRDVDLTAAPAKKAKLDTGERIAVSGRVASVKLTNFMCHANLQIDFKTAQNNCFYIGGPNGSGKSALFAAINLGLGGRGSDNDRGNTVKSYIKDGTTQSKITITLTNAGLNAHPDFDDLISIERTINQASSTYIMKSVKVTSSDNHVERIVSRKKADVDRIVSRFSIHLSNPAFWMSQDRSRSFLANFKPANVYKLYLESTNLENIRLSYIRFADALDECFALIQLKAGEILNEQKKLKRMQEQRDLQAKLDQDRALVASFCWKLLFCKVRDYNDQIELTLKKQEAQKTLQDETKKEYAKNRAARTEVEKKIQEFRDEVEVQDAEIAEAREDLDAKKRKVLEFEEKIRECEQSIRKKTSEKKYMERTIVNAKNEVRILLEKQGNQDLTKRLTKVENDYKDISQQRENMELGGESAKLREKLDTVITDYKRKEEEKYTIQRDINQLRRKIEQDMETMRRSRATKKDAINKFGSHMAEILMEINRSKSRFQTVPKGPLGKYITLIDPKWAFTVEECIGNLANNFLCSSHLDAEILRNIFQSLRIPAQDRPTIIVAKCNGRAYTNLHEPSSDFKSIYRVLKFSDPDVHNVIIDKSNCEQFILIEDKTEAMELMGSNYPPQNAVKAYTLDGSQAYANGPNSQYRFYSGRGGHARGTFGNDQGDVDEGALARLIEDTKSEAMRLETQDLRKQDHELKVIYNERDQTKAAIDEFDRKLSNLRSQELQKERQAKDLRAELAQTANEDQVENLNESIEEMQKKIPLIEDEVKDILKNVADITADMAPVIQERKEAEHTLAEIQKETRDFASKSQKLQNELSKYDDAGEILKIRLDKVKADEGVFFHTEAKLKSERDDAMEMVENDKKNHPMPPGETDPPDLSSFPSTTEAQRKIEEMQKAVDRATVGCDTTITLECVKDFKDKLKRLKYLCRMIEDVLIELKNLHAARVKAYPSLKKFTELKVCNKFQELLAVRGHFIGGLEFDHEKETLNVNVQSSKEKDAMAGRRPEVLEVEEVDEHSYDDDSDDSTGPRRKKSKKSGQKKKRVRDLKGLSGGERSFVTAALVMSLWEVMEQPFRMMDEFDVFMDMMNRKLVMDLLVELATKKFPHNQFIFFTPQGIKELNMVDGLQVFEMNRVRD | not soluble |
| MSAQLTDSYGLLEARVTELKGELADAGVQRLQELAEKERLANRLQNLLDLLPGGVIVIDGMGVVREANPAAIDLLGQPLLGMLWRHVISRCFAPREDDGHEVSLKDGRRLSIATRSLDAEPGQLVLLNDLT | not soluble |
| GMVKDKNDVGPKTVAILGAGGKMGARITRKIHDSAHHLAAIEIAPEGRDRLQGMGIPLTDGDGWIDEADVVVLALPDNIIEKVAEDIVPRVRPGTIVLILDAAAPYAGVMPERADITYFIGHPCHPPLFNDETDPAARTDYHGGIAKQAIVCALMQGPEEHYAIGADICETMWSPVTRTHRVTTEQLAILEPGLSEMVAMPFVETMVHAVDECADRYGIDRQAALDFMIGHLNVEIAMWFGYSPKVPSDAALRLMEFAKDIVVKEDWREALNPAKVKQAAELIAGK | soluble |
| SLHSMTAFAADEHLTPWGLLACELRSVNHRFLDIVIRLPEELRALESQLRERVAARVSRGKLDLTVRLSPQEIHTGKLVVNELLLSHLSTLALRLSAQFPALRVTFAELLQIPGVLKGEQIDMTTLQGHAVALLDKVLDNFIATREREGLKMQAMIAQRASAIERIVGEVRTLIPTIREGQHNKLNARMNHLSYPVDHGRIEQELVLWLQ | not soluble |
| MAHHHHHHMAPGVIPTVFRSERDREWAAQRFNYKKGSDDEERVARKRLLFARDRVHLPDDTVVETIRSPTEQLEELRALREHPPMHLLSEQLNSIAEESHRYAAALAAAAAAQPADPKDVASPASLRSDAAATSSLDGVALPPLPGAAAVVSSPPQVEIQFEDRSLFATAAILFRDRDDRVVRAMRFIGACGMVWKEVA | soluble |
| GHLDDNVTQEDIQAMLQEGSSAGVIEHNEHAMVKNVFRLDERTISSLMVPRSDIVFLDLNLPLDANLRTVMQSPHSRFPVCRNNVDDMVGIISAKQLLSESIAGERLELVDLVKNCNFVPNSLSGMELLEHFRTTGSQMVFVVDEYGDLKGLVTLQDMMDALTGEFFQEDGS | soluble |
| MHEVVTISVSQRANHLTTQFFNIQEGYLQLSKEQQVNDSKIFLNSVVDKVSKTISYAPRALLWDARTGNGSLGTYQYSESQDYHFGNEDKFKEQTVIKTHPRIPKSEYQSSLDAGAPLPCLNRENTMYWSDYSKLIYGPSSFNILRNWYHDTENPNQPDFQNLGERKFDRYSIGYDEFTENYLQEFFDGNLHRELEKCDTLQGFNLVSDMESGWGGFSSALLVELRNELPKKAVFSWGHNEDDPFTDDFPMKRLSKKWLPIISNKLRSTINMMQESDLYFPLYAAPGLTNWETAGKSCRIFDSINATISQSNLEQRKTMDYLTTAITLGYSSRNMVTGMVIGDTDYSFCSRVLPFKNSHKPNSTHIFSKSFIDRGNQTHKHHSEPDSRSKMIEMYTHRYFPSDTIPTEFSNDREFVLELESSEKNRDIFKHWNEFVVRYFKNDSDREELKNELSDYASAYESGWYEDEDSGDDDM | not soluble |
| MGSDKIHHHHHHMTQDAQCTRRTDWIPLAREVLDIEIEGIAAMRDRLNGGFVDALTLMARCTGRVVITGLGKSGLVGRKLAATLSSTGTPAFFLHPVEGAHGDMGMLRSDDVIIAISNSGETDELNAILPALRSLGASLIAMTGGLESTLAKSADVVLDTGVRREACPLNLAPTASTTAVLAMGDALAVCLIHWKSFTENDFLRFHPGGSLGHRLSMRVESLMHTENLPVVRETVRTGEALRVLDEGRLGTVLVTDGQGRLSGILTDGDVRRMVCREAGVETASPVANVMVRSPLTARKEFSVAQLIDMMEERAITVLPITGDDGLLLGVVHLHDLLGKGGVKFSR | not soluble |
| GMHSAALLQKVDELPRLPKAIAELLDVVNNEDSTVKAVSEKLSHDPVLSARVLRLANSARFGCSREVGTIDDAVVRLGMQTLRTLVIASAVVGAVPKVEGFDLADFWGNTFEVAIICQELAKRLGTLPEEAFTCGILHSIGELLIVNGDPAVAATISAAVADGADRNLMEKELLGYDNAEIGALLAQSWKFTPHLVKGIQFQNHPKSAEPYSKLAGMLAMAKQIAADWDKIPDDERTSWLAQINILAGIKVDLGGLAEKLAKMHGQGMEMGKQLA | soluble |
| MGKLMEIIIISGRSGAGKSVALRALEDAGYYCVDNIPLDLLPQLTDILSQSQSSVAISLDIRNIPNSAHSLKQTLSTLQKHHQIKIIFLEADRATLIRRYSDSRRLHPLSLKDLSLEAAIDEEYRYLEPLIQHANLILDTTHLSTHSLAERLREFLRGNSEKELKIIVESFGFKYGIPLDADYVFDVRFLPNPHWDPTLRPMTGLEAPVAEFLNSHTEVNEFIYLTRHYIDTWLPMLEKNNRSYLTIAIGCTGGKHRSVYIAQQLGEYFQAKGKTVKIQHKSLERNKKI | not soluble |
| MQKELINEIIGEVKPKAIALFGSQAKGKAGKFSDYDLLIITKDEESRNKAEKFEKGKVEIHALTMRTALELIHKGDPFFTQIVKECKPIYGEFYIKFLREVAENVGKSKVVA | not soluble |
| PDEKIVRIHSSSGTTGSPVIIPYTQKDVDVWSEMMMRCYQMAGVTNNDRVHITPGYGLWTAGIGFQLGAERLGAMAIPMGPGNTEKQLQMMVDLKSTVLTSTSSYALLLAEEIRKKGIQDKIHLKIGVIGSERWSEKMRNRIESELGIKSFDIYGLTEIYGPGIALDCEYHEGMHYW | not soluble |
| MGSDKIHHHHHHMTTTPFNRLLLTGAAGGLGKVLRERLKGYAEVLRLSDISPMAPAAGPHEEVITCDLADKAAVHTLVEGVDAIIHFGGVSTEHAFEEILGPNICGVFHVYEAARKHGVKRIIFASSNHTIGFYRQDERIDAHAPRRPDSYYGLSKCYGEDVASFYFDRYGIETVSIRIGSSFPQPQNLRMLCTWLSYDDLVQLIERGLFTPGVGHTIVYGASDNRTVWWDNRHAAHLGYVPKDSSETFRAAVEAQPAPAADDPSMVYQGGAFAVAGPFN | not soluble |
| MPTPKAFALLGPTAGGKTALALKIAETLPVEIISLDSALVYRDMDIGTAKPSASERAFVPHHLIDIIPPTESYSAARFVEDCTRLVGEISSRGRFALIVGGTMMYFRALTQGLNDLPEADACLRADLDEQKQMYGLDFLYRTLQKVDPETACRLKPNDSQRIGRALEVYYLTGKPMSTHLGSLTSHTLPFDLHTAALIPENRARLHENIALRFHLMLEQGFIGEVENLRRRYPGLTAYSPAIRCVGYRQAWKYLDGKTDFPAFVEKGIAATRQLAKRQLTWLRKTPLDCVADPFSDCTSCTRLIEAAKRFFGA | not soluble |
| NETEATLPVFTLEQVAEHHSPDDCWMAIHGKVYDLTPYVPNHPGPAGMMLVWCGQESTEAWETKSYGEPHSSLAARLLQRYLIGTLEEIT | soluble |
